# According to patent publication EP4635976A1 (Medigene Immunotherapies GmbH, dated 2025):
# Legend:
# Experiment in all cases: cell-based or functional assay
# [1] = target: mismatched peptide #15 …
# [2] = target: mismatched peptide #31 …
# [3] = target: mismatched peptide #41 …
# [4] = target: mismatched peptide #45 …
# [5] = target: mismatched peptide #62 …
# [6] = target: mismatched peptide #76 …
# [7] = target: mismatched peptide #79 …
# [8] = target: mismatched peptide #84 …
# [9] = target: mismatched peptide #160 …
# [10] = target: mismatched peptide #221 …
# [11] = target: mismatched peptide #228 …
# [12] = target: mismatched peptide #243 …
# [13] = target: mismatched peptide #244 …
# [14] = target: mismatched peptide #246 …
# [15] = target: mismatched peptide #247 …
# [16] = target: mismatched peptide #257 …
# [17] = target: mismatched peptide #278 …
# [18] = target: mismatched peptide #323 …
# [19] = target: mismatched peptide #324 …
# [20] = target: mismatched peptide #9 …
# [21] = target: mismatched peptide #47 …
# [22] = target: mismatched peptide #116 …
# [23] = target: mismatched peptide #236 …
# [24] = target: mismatched peptide #239 …
# [25] = target: mismatched peptide #240 …
# [26] = target: mismatched peptide #265 …
# [27] = target: mismatched peptide #280 …
binder,measurement,setting,value
NY-ESO specific TCR (T11.8-10-17) with Uni-TABS epitope V1 at A245 in loop 2 of TRBC (TCR) TCR alpha: QKEVEQNSGPLSVPEGAIASLNCTYSDRGSQSFFWYRQYSGKSPELIMFIYSNGDKEDGRFTAQLNKASQYVSLLIRDSQPSDSATYLCAADDKIIFGKGTRLHILPNIQNPDPAVYQLRDSKSSDKSVCLFTDFDSQTNVSQSKDSDVYITDKTVLDMRSMDFKSNSAVAWSNKSDFACANAFNNSIIPEDTFFPSSDVPCDVKLVEKSFETDTNLNFQNLSVIGFRILLLKVAGFNLLMTLRLWSS TCR beta: DAGVIQSPRHEVTEMGQEVTLRCKPISGHDYLFWYRQTMMRGLELLIYFNNNVPIDDSGMPEDRFSAKMPNASFSTLKIQPSEPRDSAVYFCASSRGGSGYTFGSGTRLTVVEDLNKVFPPEVAVFEPSKAEIAHTQKATLVCLATGFFPDHVELSWWVNGKEVHSGVSTDPQPLKEQPALNDSRYCLSSRLRVSATFWQNPRNHFRCQVQFYGLSENDEWTQDRAGSGDKGEVPKDRFSAGSGKPVTQIVSAEAWGRADCGITSASYHQGVLSATILYEILLGKATLYAVLVSALVLMAMVKRKDF,"IFN-γ release (IFNg-ELISA), donor MIT 045",[1],0 pg/mL
same,"IFN-γ release (IFNg-ELISA), donor MIT 045",[2],0 pg/mL
same,"IFN-γ release (IFNg-ELISA), donor MIT 045",[3],0 pg/mL
same,"IFN-γ release (IFNg-ELISA), donor MIT 045",[4],0 pg/mL
same,"IFN-γ release (IFNg-ELISA), donor MIT 045",[5],0 pg/mL
same,"IFN-γ release (IFNg-ELISA), donor MIT 045",[6],0 pg/mL
same,"IFN-γ release (IFNg-ELISA), donor MIT 045",[7],0 pg/mL
same,"IFN-γ release (IFNg-ELISA), donor MIT 045",[8],0 pg/mL
same,"IFN-γ release (IFNg-ELISA), donor MIT 045",[9],0 pg/mL
same,"IFN-γ release (IFNg-ELISA), donor MIT 045",[10],0 pg/mL
same,"IFN-γ release (IFNg-ELISA), donor MIT 045",[11],0 pg/mL
same,"IFN-γ release (IFNg-ELISA), donor MIT 045",[12],0 pg/mL
same,"IFN-γ release (IFNg-ELISA), donor MIT 045",[13],0 pg/mL
same,"IFN-γ release (IFNg-ELISA), donor MIT 045",[14],0 pg/mL
same,"IFN-γ release (IFNg-ELISA), donor MIT 045",[15],0 pg/mL
same,"IFN-γ release (IFNg-ELISA), donor MIT 045",[16],0 pg/mL
same,"IFN-γ release (IFNg-ELISA), donor MIT 045",[17],0 pg/mL
same,"IFN-γ release (IFNg-ELISA), donor MIT 045",[18],0 pg/mL
same,"IFN-γ release (IFNg-ELISA), donor MIT 045",[19],0 pg/mL
NY-ESO specific TCR (T11.8-10-17) with Uni-TABS epitope V1 at A199 in loop 1 of TRBC (TCR) TCR alpha: QKEVEQNSGPLSVPEGAIASLNCTYSDRGSQSFFWYRQYSGKSPELIMFIYSNGDKEDGRFTAQLNKASQYVSLLIRDSQPSDSATYLCAADDKIIFGKGTRLHILPNIQNPDPAVYQLRDSKSSDKSVCLFTDFDSQTNVSQSKDSDVYITDKTVLDMRSMDFKSNSAVAWSNKSDFACANAFNNSIIPEDTFFPSSDVPCDVKLVEKSFETDTNLNFQNLSVIGFRILLLKVAGFNLLMTLRLWSS TCR beta: DAGVIQSPRHEVTEMGQEVTLRCKPISGHDYLFWYRQTMMRGLELLIYFNNNVPIDDSGMPEDRFSAKMPNASFSTLKIQPSEPRDSAVYFCASSRGGSGYTFGSGTRLTVVEDLNKVFPPEVAVFEPSKAEIAHTQKATLVCLATGFFPDHVELSWWVNGKEVHSGVSTDPQPLKEQPAGSGDKGEVPKDRFSAGSGLNDSRYCLSSRLRVSATFWQNPRNHFRCQVQFYGLSENDEWTQDRAKPVTQIVSAEAWGRADCGITSASYHQGVLSATILYEILLGKATLYAVLVSALVLMAMVKRKDF,"IFN-γ release (IFNg-ELISA), donor MIT038",[20],258 pg/mL
same,"IFN-γ release (IFNg-ELISA), donor MIT038",[1],520 pg/mL
same,"IFN-γ release (IFNg-ELISA), donor MIT 045",[1],306 pg/mL
same,"IFN-γ release (IFNg-ELISA), donor MIT038",[2],2420 pg/mL
same,"IFN-γ release (IFNg-ELISA), donor MIT 045",[2],1560 pg/mL
same,"IFN-γ release (IFNg-ELISA), donor MIT038",[3],555 pg/mL
same,"IFN-γ release (IFNg-ELISA), donor MIT 045",[3],680 pg/mL
same,"IFN-γ release (IFNg-ELISA), donor MIT038",[4],1410 pg/mL
same,"IFN-γ release (IFNg-ELISA), donor MIT 045",[4],1520 pg/mL
same,"IFN-γ release (IFNg-ELISA), donor MIT 045",[21],530 pg/mL
same,"IFN-γ release (IFNg-ELISA), donor MIT038",[5],942 pg/mL
same,"IFN-γ release (IFNg-ELISA), donor MIT 045",[5],918 pg/mL
same,"IFN-γ release (IFNg-ELISA), donor MIT038",[6],825 pg/mL
same,"IFN-γ release (IFNg-ELISA), donor MIT 045",[6],939 pg/mL
same,"IFN-γ release (IFNg-ELISA), donor MIT038",[7],370 pg/mL
same,"IFN-γ release (IFNg-ELISA), donor MIT 045",[22],257 pg/mL
same,"IFN-γ release (IFNg-ELISA), donor MIT038",[9],2800 pg/mL
same,"IFN-γ release (IFNg-ELISA), donor MIT 045",[9],2840 pg/mL
same,"IFN-γ release (IFNg-ELISA), donor MIT038",[10],900 pg/mL
same,"IFN-γ release (IFNg-ELISA), donor MIT 045",[10],889 pg/mL
same,"IFN-γ release (IFNg-ELISA), donor MIT038",[11],484 pg/mL
same,"IFN-γ release (IFNg-ELISA), donor MIT 045",[11],1200 pg/mL
same,"IFN-γ release (IFNg-ELISA), donor MIT038",[23],476 pg/mL
same,"IFN-γ release (IFNg-ELISA), donor MIT 045",[23],400 pg/mL
same,"IFN-γ release (IFNg-ELISA), donor MIT038",[24],312 pg/mL
same,"IFN-γ release (IFNg-ELISA), donor MIT038",[25],386 pg/mL
same,"IFN-γ release (IFNg-ELISA), donor MIT038",[12],499 pg/mL
same,"IFN-γ release (IFNg-ELISA), donor MIT 045",[12],356 pg/mL
same,"IFN-γ release (IFNg-ELISA), donor MIT038",[13],387 pg/mL
same,"IFN-γ release (IFNg-ELISA), donor MIT 045",[13],261 pg/mL
same,"IFN-γ release (IFNg-ELISA), donor MIT038",[14],345 pg/mL
same,"IFN-γ release (IFNg-ELISA), donor MIT038",[15],537 pg/mL
same,"IFN-γ release (IFNg-ELISA), donor MIT 045",[15],372 pg/mL
same,"IFN-γ release (IFNg-ELISA), donor MIT038",[16],407 pg/mL
same,"IFN-γ release (IFNg-ELISA), donor MIT038",[26],400 pg/mL
same,"IFN-γ release (IFNg-ELISA), donor MIT038",[17],442 pg/mL
same,"IFN-γ release (IFNg-ELISA), donor MIT038",[27],256 pg/mL
same,"IFN-γ release (IFNg-ELISA), donor MIT038",[18],3170 pg/mL
same,"IFN-γ release (IFNg-ELISA), donor MIT 045",[18],3000 pg/mL
same,"IFN-γ release (IFNg-ELISA), donor MIT038",[19],757 pg/mL
same,"IFN-γ release (IFNg-ELISA), donor MIT 045",[19],628 pg/mL
